Patent US20210040206A1

Experiments:
[1] = biological target: human SIRPa expressed by blood monocytes of heterozygous V1/V2 donors (cells carry both SIRPa v1 and SIRPa v2); experiment: FACS competition on human monocytes of V1/V2 donors; blocked ligand: biotinylated CD47Fc, revealed with streptavidin-PE
[2] = biological target: human SIRPa expressed by blood monocytes of heterozygous V1/V2 donors (cells carry both SIRPa v1 and SIRPa v2); experiment: flow cytometry competition, recombinant CD47-Fc on heterozygous V1/V2 monocytes (n=5)
[3] = biological target: SIRPa V1 recombinant protein (extracellular domain fused with mouse Fc from IgG2a) (human; mouse) (UniProt P78324); experiment: ELISA on immobilised SIRPa variant-mouse Fc, donkey anti-human IgG peroxidase, TMB 450 nm; given as ED50
Sequence of SIRPa V1 recombinant protein (extracellular domain fused with mouse Fc from IgG2a) (human; mouse) (P78324 31-373 limits assumed): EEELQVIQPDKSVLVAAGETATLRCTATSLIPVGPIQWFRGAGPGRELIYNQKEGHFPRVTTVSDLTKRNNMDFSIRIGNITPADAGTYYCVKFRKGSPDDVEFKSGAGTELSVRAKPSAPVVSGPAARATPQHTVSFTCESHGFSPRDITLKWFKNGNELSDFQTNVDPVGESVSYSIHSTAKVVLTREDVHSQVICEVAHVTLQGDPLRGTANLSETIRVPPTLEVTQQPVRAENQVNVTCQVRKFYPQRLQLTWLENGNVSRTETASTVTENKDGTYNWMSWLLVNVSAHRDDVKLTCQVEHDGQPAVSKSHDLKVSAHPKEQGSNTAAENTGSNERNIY

[4] = biological target: SIRPa V7 (SNP14 + ?) recombinant protein, extracellular domain fused with mouse Fc from IgG2a (human; mouse) (UniProt P78324); experiment: as above
Sequence of SIRPa V7 (SNP14 + ?) recombinant protein, extracellular domain fused with mouse Fc from IgG2a (human; mouse) (P78324 31-373 R107S/G109S limits assumed): as the sequence (P78324 31-373 limits assumed) above, with R77S, G79S counted along it

[5] = biological target: SIRPa V5 (SNP9 + 10 + 11) recombinant protein, extracellular domain fused with mouse Fc from IgG2a (human; mouse) (UniProt P78324); experiment: as above
Sequence of SIRPa V5 (SNP9 + 10 + 11) recombinant protein, extracellular domain fused with mouse Fc from IgG2a (human; mouse) (P78324 31-373 D95E/L96S limits assumed): as the sequence (P78324 31-373 limits assumed) above, with D65E, L66S counted along it

[6] = biological target: SIRPa V3 (SNP1 + 2 + 3 + 4 + 5 + 6) recombinant protein, extracellular domain fused with mouse Fc from IgG2a (human; mouse) (UniProt P78324); experiment: as above
Sequence of SIRPa V3 (SNP1 + 2 + 3 + 4 + 5 + 6) recombinant protein, extracellular domain fused with mouse Fc from IgG2a (human; mouse) (P78324 other isoform, or with tags, fused parts or gaps limits assumed): as the sequence (P78324 31-373 limits assumed) above, with L14S, T20S, T22I, R24H, A27V counted along it

SIRPv2 (human;mouse) = SIRPv2 (human;mouse) (UniProt P78324); experiment: as above
Sequence of SIRPv2 (human;mouse) (P78324 31-373): as the sequence (P78324 31-373 limits assumed) above

[7] = biological target: SIRPa V6 (SNP12 + 13) recombinant protein, extracellular domain fused with mouse Fc from IgG2a (human; mouse) (UniProt P78324); experiment: as above
Sequence of SIRPa V6 (SNP12 + 13) recombinant protein, extracellular domain fused with mouse Fc from IgG2a (human; mouse) (P78324 31-373 N100E limits assumed): as the sequence (P78324 31-373 limits assumed) above, with N70E counted along it

[8] = biological target: SIRPa V8 (SNP15 + 16) recombinant protein, extracellular domain fused with mouse Fc from IgG2a (human; mouse) (UniProt P78324); experiment: as above
[9] = biological target: SIRPa V4 (SNP8) recombinant protein, extracellular domain fused with mouse Fc from IgG2a (human; mouse) (UniProt P78324); experiment: as above
Sequence of SIRPa V4 (SNP8) recombinant protein, extracellular domain fused with mouse Fc from IgG2a (human; mouse) (P78324 31-373 G75A limits assumed): as the sequence (P78324 31-373 limits assumed) above, with G45A counted along it

[10] = biological target: SIRPa v2 (antigen of the ELISA of FIG. 9B) (human) (UniProt P78324); experiment: ELISA against SIRPa v2; given as ED50
Sequence of SIRPa v2 (antigen of the ELISA of FIG. 9B) (human) (P78324 other isoform, or with tags, fused parts or gaps limits assumed): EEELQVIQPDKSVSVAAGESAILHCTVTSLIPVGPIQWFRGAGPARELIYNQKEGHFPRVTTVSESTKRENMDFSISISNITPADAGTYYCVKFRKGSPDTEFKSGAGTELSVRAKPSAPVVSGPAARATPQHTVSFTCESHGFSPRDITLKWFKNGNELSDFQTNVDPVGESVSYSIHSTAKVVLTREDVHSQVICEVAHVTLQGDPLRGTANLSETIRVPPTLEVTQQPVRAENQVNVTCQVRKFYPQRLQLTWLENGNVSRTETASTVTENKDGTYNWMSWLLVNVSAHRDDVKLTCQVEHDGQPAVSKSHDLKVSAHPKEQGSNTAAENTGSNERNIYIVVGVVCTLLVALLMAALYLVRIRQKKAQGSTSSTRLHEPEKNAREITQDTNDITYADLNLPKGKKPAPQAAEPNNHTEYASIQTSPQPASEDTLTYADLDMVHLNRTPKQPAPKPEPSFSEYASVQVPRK

B1: in-house anti-human SIRPa v1 antibody (antibody, human IgG4, V domains shown)
VH: EVQLVQSGAEVKKPGESLRISCKASGYSFTSYWVHWVRQMPGKGLEWMGNIDPSDSDTHYSPSFQGHVTLSVDKSISTAYLQLSSLKASDTAMYYCVRGGTGTLAYFAYWGQGTLVTVSS
VL: DVVMTQSPLSLPVTLGQPASISCRSSQSLVHSYGNTYLYWFQQRPGQSPRLLIYRVSNRFSGVPDRFSGSGSGTDFTLKISRVEAEDVGVYYCFQGTHVPYTFGGGTKVEIK
With B1 as the binder, how does the IC50 (read off the curve) [1] read?
Its IC50 (read off the curve) is 100 ng/mL.

And the reduction of CD47-Fc binding [2]?
The reduction of CD47-Fc binding was 50%.

B2: Kwar antibody (antibody, from a related filing, V domains shown)
VH: EVQLQQSGAELVKPGASVKLSCTASGFNIKDYYIHWVQQRTEQGLEWIGRIDPEDGETKYAPKFQDKATITADTSSNTAYLHLSSLTSEDTAVYYCARWGAYWGQGTLVTVSS
VL: QIVLTQSPAIMSASPGEKVTLTCSASSSVSSSYLYWYQQKPGSSPKLWIYSTSNLASGVPARFSGSGSGTSYSLTISSMEAEDAASYFCHQWSSYPRTFGAGTKLELK
Which EC50 [3] does the source give for B2 here?
Its EC50 is 0.77 ng/mL.

And the EC50 [4]?
The EC50 was 0.6 ng/mL.

What about the EC50 [5] of the same binder?
The EC50 was 0.78 ng/mL.

What about the EC50 [6] of the same binder?
Its EC50 is 0.77 ng/mL.

What about the EC50 (SIRPv2 (human;mouse)) of the same binder?
Its EC50 is 0.77 ng/mL.

What about the EC50 [7] of the same binder?
Its EC50 is 0.75 ng/mL.

What about the EC50 [8] of the same binder?
The EC50 was 0.93 ng/mL.

And the EC50 [9]?
Its EC50 is 0.74 ng/mL.

B3: chimeric 18D5 antibody (antibody, from a related filing, V domains shown)
VH: QVQLQQPGAELVRPGSSVKLSCKASGYTFTSYWVHWVKQRPIQGLEWIGNIDPSDSDTHYNQKFKDKASLTVDKSSSTAYMQLSSLTFEDSAVYYCVRGGTGTMAWFAYWGQGTLVTVSA
VL: DVVMTQTPLSLPVSLGDQASISCRSSQSLVHSYGNTYLYWYLQKPGQSPKLLIYRVSNRFSGVPDRFSGSGSGTDFTLKISRVEAEDLGVYFCFQGTHVPYTFGSGTKLEIKR
For B3, which EC50 [10] is on record?
Its EC50 is 5720 ng/mL.
